Measurements from US20210355208.

Target: anti-EGFR activatable antibodies comprising substrates 2001, 2006-2010 and 2012

B1: human matriptase (protein)
chain: VVGGTDADEGEWPWQVSLHALGQGHICGASLISPNWLVSAAHCYIDDRGFRYSDPTQWTAFLGLHDQSQRSAPGVQERRLKRIISHPFFNDFTFDYDIALLELEKPAEYSSMVRPICLPDASHVFPAGKAIWVTGWGHTQYGGTGALILQKGEIRVINQTTCENLLPQQITPRMMCVGFLSGGVDSCQGDSGGPLSSVEADGRIFQAGVVSWGDGCAQRNKPGVYTRLPLFRDWIKENTGV
With B1 the kcat/Km was “a range of kcat/Km values ranging from 6E+02 to 2E+04”.
